Assay results reported in US8796227B2, “Peptides for inhibiting chemokine binding to chemokine receptors” (Biokine Therapeutics Ltd., priority 2002, dated 2014).
“Also recorded” adds a separate entry of the source. Each block holds one sequence with its values, some of them ahead of it. Bridges are numbered along the chain shown (N, C = ends). Where no end group is shown, it is not given here.

Assays:
[1] = target: T1, Human MCP-1 (Homo sapiens, UniProt P13500); test: ELISA analysis of the synthetic chemokine-binding peptide; conditions: chemokine-coated wells, specific binding = at least two fold of binding to control proteins (BSA, Actin, Fibronectin)
T1 construct: purchased PeproTech, Inc. 300-04
Experimental: (§1) Recombinant chemokines were ordered from PeproTech, Inc. (Rocky Hill, N.J., USA). Human SDF-1α (Cat. No. 300-28A), human MIG (Cat. No. 300-26) and human IL-8, (72 amino acids) (Cat. No. 200-08M), belong to the alpha-chemokines (C-X-C) family. Human MCP-1 (MCAF) (Cat. No. 300-04) and human Eotaxin (Cat No. 300-21) belong to the beta-chemokines (C-C family). All chemokines were prepared according to the company recommendations.
(§2) Peptides were synthesized in the Weizmann Institute of Science, Rehovot, Israel, in order to perform tests for characterization of their influence on the biological activity of the chemokines. The format of the various synthesized peptides was as follows: The cyclic peptides, ACX7CGGGSK-biotin-G and the linear peptides, X12GGGSK-biotin-G. The peptides were biotinylated on their C-termini; the biotin will serve as a detector during the following experiments. Each synthetic peptide was dissolved to concentration of 1 mg/ml (˜0.6 mM) in 4% DMSO (Dimethyl Sulphoxide, Sigma, Cat. # D-2650).
(§3) NUNC-Immuno™ MaxiSorp™ plates (Cat. No. 4-42404) were coated with the appropriate chemokine (0.1 ml/well, 0.1-1.0 μg/ml in 0.1 M NaHCO3, pH 8.6), overnight at 4° C. The plates were then blocked with 0.2 ml/well of blocking buffer (5 mg/ml BSA in 0.1 NaHCO3). Control wells were treated with blocking buffer alone, with no addition of target protein (chemokine). The plates were washed 6 times with PBST (0.1% Tween 20 in PBS), followed by incubation for 45 minutes at room temperature with 10-fold serial dilutions of individual synthetic peptides (10pg-10 μg) with 1% BSA (PBST-BSA)/well. After the plates were washed 6 times with PBST, the bound peptides were probed by HRP-SA Conjugate, diluted 1:10,000 to 1:20,000 in PBST-BSA, 0.1 ml/well for 45 minutes at room temperature. The target-bound synthetic peptides probed with HRP-SA were quantified by DAKO TMB one-step substrate system, followed by the addition of stop solution, HCl—H2SO4 mixture (0.1 ml/well) (1N HCl, 3N H2SO4). The results were analyzed by ELISA reader at OD450.
(§4) The present invention identifies chemokine-binding peptides with biological activity. The binding specificities of the various peptides to the chemokines were determined by screening against BSA, Actin and Fibronectin-coated wells as negative controls in parallel experiments. The binding level of the peptides to the various chemokines, which reached at least two fold of the binding level to the control proteins, was considered a specific binding.
(§5) The specific binding of the peptides was detected by screening methodology, using ELISA, as described in “Materials and Methods”, employing microplates coated with the various chemokines to be checked. The binding specificities of the various peptides to the various chemokines were determined by screening against BSA, Actin and Fibronectin-coated wells as negative controls in parallel experiments.
(§6) Again, the specificity of the binding, either to one chemokine or more, was established by comparing binding level with the control binding level to non-related proteins, (shown in the Figure as a broken line).

[2] = target: T2, MIG (Homo sapiens, UniProt Q07325); test: as above; conditions: chemokine-coated wells, specific binding = at least two fold of binding to control proteins (BSA, Actin, Fibronectin)
T2 construct: purchased PeproTech, Inc. 300-26
T2 sequence (Q07325 23-125): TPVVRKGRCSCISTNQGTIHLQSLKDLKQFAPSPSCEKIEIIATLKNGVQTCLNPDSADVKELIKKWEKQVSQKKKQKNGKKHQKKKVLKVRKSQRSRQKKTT
Experimental: as §1, §2, §3, §4, §5, §6

[3] = target: T2, MIG; test: Biovalidation: laminar flow assay, chemokine and VCAM-1 activated adhesion of T cells; type: cell-based; conditions: for Reduction of the activity of MIG: T cell adhesion under flow
Experimental: 50 ml blood was added to 10 ml Dextran (Dextran T-500 6% w/v) in PBS (phosphate buffer saline), and 7 ml citrate buffer (25 g citrate, 8 g citric acid in 500 ml PBS). The solution was incubated for 30 min at 25° C. 10 ml Ficoll 1077 (Sigma) was added to the bottom of the tube. The tube was then centrifuged at 2,000 rpm for 30 min, at 18° C., (with the brake mode of the centrifuge off). The interphase was collected and washed twice with 8 ml PBS-5% FCS (fetal calf serum), followed by centrifugation at 1,400 rpm, for 5 min, at 18° C. The cells were re-suspended in PBS-5% FCS at a concentration less than 10^8/ml. 2 ml of the cell solution were applied and incubated for 45 min at 25° C. on a Perspex Nylon wool column, which was pre-soaked with PBS-5% FCS. Each column was washed with 8 ml PBS-5% FCS and the cells (T-cells and erythrocytes) were eluted by 50 ml of 5 mM EDTA in PBS. A red pellet was obtained by centrifugation at 1,400 rpm, at 4° C., for 5 min, with the brake on. In order to perform lysis of the erythrocytes, the red pellet was re-suspended in 5 ml lysis-buffer (155 mM NH4Cl, 10 mM KHCO3, 0.1 mM EDTA, X0.1PBS) for 4 min, followed by immediate addition of 50 ml of PBS-EDTA.
Following centrifugation at 1,400 rpm, at 4° C., for 5 min with brake on, the pellet was washed again with 50 ml PBS-EDTA and re-centrifuged under the same conditions. A white pellet was obtained and re-suspended in RPMI/10% FCS/L-glutamine/sodium pyruvate/antibiotics at a concentration of 3^X10^6 cells/ml. The cells were incubated for 2 h at 37° C., followed by collection of the non-adherent cells. The cells were ready for use in experiments after overnight incubation at 37° C. […]
Laminar flow assays were performed as follows. Polystyrene plates (B.D) were coated with soluble VCAM-1 at 10 μg/ml in the presence of 2 μg/ml HSA carrier. The plates were washed three times with PBS and blocked with HSA (20 μg/ml in PBS) for 2 hrs at room temperature. Alternatively, washed plates were coated with 10 μg/ml MIG chemokine in PBS for 30 min at room temperature, before being blocked with HSA. The plates were assembled as the lower wall of a parallel wall flow chamber and mounted on the stage of an inverted microscope. The peptide, as described previously, (10 μg/ml) was allowed to settle on the substrate coated chamber wall for 10 min, at 37° C. and then washed. T cells (5×10^6/ml, purity >98%) were suspended in binding buffer, perfused into the chamber and allowed to settle on the substrate coated chamber wall for 1 min, at 37° C. Flow was initiated and increased in 2 to 2.5 fold increments every 5 sec. generating controlled shear stresses on the wall. Cells were visualized in a 20× objective of an inverted phase-contrast Diaphot Microscope (Nikon, Japan) and photographed with a long integration LIS-700 CCD video camera (Applitech; Holon, Israel), connected to a video recorder (AG-6730 S-VHS, Panasonic, Japan). The number of adherent cells resisting detachment by the elevated shear forces was determined after each interval by analysis of videotaped cell images, and was expressed as the percent of originally settled cells. All adhesion experiments were performed at least three times on multiple test fields.

[4] = target: T3, SDF-1α (Homo sapiens, UniProt P48061); test: ELISA analysis of the synthetic chemokine-binding peptide; conditions: chemokine-coated wells, specific binding = at least two fold of binding to control proteins (BSA, Actin, Fibronectin)
T3 construct: purchased PeproTech, Inc. 300-28A
Experimental: as §1, §2, §3, §4, §5, §6

[5] = test system: chemokines MCP-1, SDF-1α, MIG, Eotaxin and IL-8; test: ELISA binding to the panel of chemokines (chemokine not singled out); parameters: species or system human; conditions: five chemokines tested, control binding level = one fold
Experimental: as §1, §2, §3
The present invention identifies chemokine-binding peptides with biological activity. The binding specificities of the various peptides to the chemokines were determined by screening against BSA, Actin and Fibronectin-coated wells as negative controls in parallel experiments. […]
The specific binding of the peptides was detected by screening methodology, using ELISA, as described in “Materials and Methods”, employing microplates coated with the various chemokines to be checked. The binding specificities of the various peptides to the various chemokines were determined by screening against BSA, Actin and Fibronectin-coated wells as negative controls in parallel experiments. […]

[6] = target: T4, Eotaxin (Homo sapiens, UniProt P51671); test: ELISA analysis of the synthetic chemokine-binding peptide; conditions: chemokine-coated wells, specific binding = at least two fold of binding to control proteins (BSA, Actin, Fibronectin)
T4 construct: purchased PeproTech, Inc. 300-21
Experimental: as §1, §2, §3, §4, §5, §6

[7] = target: T5, IL-8 (Homo sapiens, UniProt P10145); test: Biovalidation: laminar flow assay, chemokine and VCAM-1 activated adhesion of T cells; type: cell-based; conditions: VCAM-1
T5 construct: human IL-8, (72 amino acids) (Cat. No. 200-08M); purchased PeproTech, Inc. 200-08M
T5 sequence (P10145 28-99): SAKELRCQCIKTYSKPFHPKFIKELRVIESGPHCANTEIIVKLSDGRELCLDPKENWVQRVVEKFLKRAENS

[8] = target: T6, human IL-8 (Homo sapiens, UniProt P10145); test: ELISA analysis of the synthetic chemokine-binding peptide; conditions: chemokine-coated wells, specific binding = at least two fold of binding to control proteins (BSA, Actin, Fibronectin)
T6 construct: human IL-8, (72 amino acids) (Cat. No. 200-08M); purchased PeproTech, Inc. 200-08M
T6 sequence (P10145 28-99 limits assumed): T5 sequence (P10145 28-99)
Experimental: as §1, §2, §3, §4, §5, §6

T1 sequence (P13500 24-99): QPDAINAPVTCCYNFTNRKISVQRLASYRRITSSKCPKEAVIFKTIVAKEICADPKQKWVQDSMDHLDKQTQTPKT
T3 sequence (P48061 22-89 limits assumed): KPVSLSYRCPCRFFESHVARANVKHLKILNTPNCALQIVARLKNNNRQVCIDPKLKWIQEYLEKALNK

Sequence: ACHASLKHRC [BKT-P48]
Bound chemokines (at least): MCP-1 [1]: MCP-1

Sequence: AHSLKSITNHGL [BKT-P44]
Bound chemokines (at least): MCP-1 [1]: MCP-1

Sequence: CDIPWRNEC [BKT-P10]
Percentage of arrested cells ([3]; MIG plus peptide (FIG. 4), MIG alone about 25-30%, control = VCAM-1 alone): 25%-30%
Reduction of the activity of MIG ([3]; VCAM-1): no influence on the activity of MIG
Bound chemokines (at least): MIG [2]: does not bind

Sequence: CKESATYFC (ACKESATYFCGGGS-{K(biotin)-Gly}; disulfide 2-10 (inferred)) [BKT-P18]
Binding to the various chemokines [5]: no binding to the various chemokines

Sequence: FSMDDPERVRSP [BKT-P9]
Binding to the various chemokines [5]: bind specifically to a single chemokine; also recorded: specifically bind to one specific chemokine

Sequence: GDFNSGHHTTTR [BKT-P27]
Bound chemokines (at least): MCP-1 [1]: MCP-1

Sequence: GVHKHFYSRWLG [BKT-P33]
Bound chemokines (at least): Eotaxin [6]: Eotaxin

Sequence: HHFHLPKLRPPV [BKT-P45]
Level of Antagonistic Effect ([3]; Chemokine checked MIG, T cells, VCAM-1, peptide 10 μg/ml): + (+ 20%)
Reduction of the activity of MIG ([3]; VCAM-1): about 20%
Level of Antagonistic Effect ([7]; Chemokine checked IL-8, T cells, peptide 10 μg/ml): +++ (+++ 100%)
Abolishment of the activity of IL-8 ([7]; T cell adhesion under flow): 100%
Bound chemokines (at least): MIG [2]: MIG
Bound chemokines (at least): MCP-1 [1]: MCP-1
Bound chemokines (at least): IL-8 [8]: IL-8

Now from value to sequence:

Bound chemokines (at least): MIG [2]: MIG
Sequence: CAHLSPHKC [BKT-P50]

Bound chemokines (at least): SDF-1α [4]: SDF-1α
Sequence: CHHNLSWEC [BKT-P56]

Bound chemokines (at least): MCP-1 [1]: MCP-1
Sequence: ESDLTHALHWLG [BKT-P51]

Bound chemokines (at least): MCP-1 [1]: MCP-1
Sequence: HHTWDTRIWQAF [BKT-P55]

Bound chemokines (at least): MIG [2]: MIG
Sequence: HPTTPFIHMPNF (HPTTPIHMPNF) [BKT-P54]

Bound chemokines (at least): MCP-1 [1]: MCP-1
Sequence: HSACHASLKHRC [BKT-P49]
